Drawing on publication doi:10.1101/2022.01.20.477176v3, this text covers Km and kcat for 1 protein.

The term Km denotes the substrate concentration at which the rate is half of its maximum. What is called kcat is the number of substrate molecules converted per active site and unit of time at saturation.

What all share (assay): purified protein
Substrate in series [1]: C=CC(=O)O
Particulars: 150 μM NADH (saturating), pH 6.5.

Substrate in series [2]: C=C(C)C(=O)O
The note with it: 150 μM NADH (saturating), pH 6.5.

Substrate in series [3]: NC(=O)C1=CN([C@@H]2O[C@H](COP(=O)(O)OP(=O)(O)OC[C@H]3O[C@@H](n4cnc5c(N)ncnc54)[C@H](O)[C@@H]3O)[C@@H](O)[C@H]2O)C=CC1
Particulars: 1 mM acrylate, pH 6.5.

B1: ARD (NADH:acrylate oxidoreductase) (Vibrio harveyi) (protein)
chain: MAQLVDEIVFQSGVKLHNRIVMAPMTIQSAFFDGGVTQEMINYYAARSGGAGAIIVESAFVENYGRAFPGALGIDTDSKIAGLTKLADAIKAKGSKAILQIYHAGRMANPEFNGGHQPISASPVAALRDNAETPLEMTKEQIEEMIERFGDAVNRAILAGFDGVEIHGANTYLIQQFFSPHSNRRNDKWGGNIERRTSFPLAVLAKTKQVAEQHNKSDFIIGYRFSPEEIEQPGIRFDDTMFLLDKLATHGLDYFHFSMGSWLRNSIVTPEDQEPLIDKYRKLQSESVAKVPVIGVGGIAQRKDAENALEQGYDMVSVGKGYLVEPTWANKALNDETCAEFADIAQQEALQIPTPLWEIMDYMIVDSAAEALKHQRIKELQNVPIKFNSGEYTAYGRGHNGDLPVTVTFSEDKILDIVVDSSKESDGIANPAFERIPQQILDGQTLNIDVISGATVSSQAVLDGVSNAVDLAGGNSEALRCKAKEAVAWSSKTIEETVDIVVVGGGGAGLSATLTALDKGKSVVLLEKFPAIGGNTVRTGGWVNAAEPKWQGDFPALPGEKETLMLLAKTAESEFSGEYLEDFKVLKAQLDGYFTDLENGKQYLFDSVELHRIQTYLGGKRTDLNGESIYGQYDLVETLTSRSMESIDWLSEKGIDFDRSVVEIPVGALWRRAHKPKRPKGVEFIDKLSKRIQEQNGRIITDTRATDLMVDNGKVVGIKAVQADGTELILHVNHGVVLASGGFGANTQMIKKYNTYWKEIADDIKTTNSPALVGDGIEIGEKAGAELVGMGFVQLMPVGDPKSGALLTGLIVPPENFVFVNKQGKRFVDECGSRDVLSEAFFDNGGLIYMIADENIRQTAANTSDETIEREIKEGIIIQADTLEELAEKIGVPTQELTNTIAQYNACVDAGQDPEFHKSAFGLKVEKAPFYATPRQPSVHHTMGGLKIDTKARVIGKDGEVIQGLYAAGEVTGGIHAGNRLGGNALIDIFTYGRIAGESASDLV
Consider B1, for which the Km in series [1] is 16 ± 1 µM; in series [2], 690 ± 140 µM; in series [3] it was 14 ± 1 µM. Besides, the kcat amounted to 19 ± 1 s⁻¹ in series [1] and 2.5 ± 0.2 s⁻¹ in series [2].
